Here are results for five molecules from patent US20170355750A1 (ACADEMIA SINICA, published 2017).

In assay [1] the target is T1, HER2 on the surface of N87 cells (human, UniProt P04626).
T1 construct: full-length receptor on the cell surface
Nature of the assay: flow cytometry on N87 cells; scFv detected with AL2-RFP (1:1 scFv:AL fragment); MFI adjusted over cells with AL2-RFP without scFv. On the technique in general: Flow cytometry measures light scatter and fluorescence of single cells or particles in a stream.
Procedure: (§1) Mean fluorescence intensities (MFIs) for the same set of scFvs complexed with AL2-RFP in 1:1 ratio of the scFv:AL fragment were measured with N87 (FIG. 10B), SKBR3 (FIG. 10D), BT474 (FIG. 10F), and MCF7 (FIG. 10H) cells by flow cytometry, where the MFIs shown in the y-axis were adjusted over the background value by the cells treated with AL2-RFP without scFv.
(§2) Cells were suspended by trypsin treatment and went through mesh 40-micron pore. About 2×10⁵ cells were incubated with 100 μL scFv at 4° C. for 30 minutes, then washed once with 0.5% FBS 1×PBS (wash buffer), mixed with 1.2 μg AL2-RFP in 50 μL wash buffer at 4° C. for 20 minutes, and then wash twice with washer buffer. After centrifugation and resuspension, cells were analyzed for RFP signal by FACS (BD FACS Canto II).

The target in assay [2] is T2, HER2 on the surface of BT474 cells (human, UniProt P04626).
T2 construct: full-length receptor on the cell surface
Nature of the assay: flow cytometry on BT474 cells; scFv detected with AL2-RFP (1:1 scFv:AL fragment); MFI adjusted over cells with AL2-RFP without scFv.
Procedure: as §1, §2

B1: H32 scFv (scFv)
scFv: DIQMTQSPSSLSASVGDRVTITCKASQNVGTAVAWYQQKPGKAPKLLIYSASNRYTGVPSRFSGSGSGTDFTLTISSLQPEDFATYYCQQYSSYPLAFGQGTKVEIKRGGGGSIEGRSGGGGSEVQLVESGGGLVQPGGSLRLSCKASGFNIKDYFMYWVRQAPGKGLEWVGWIDPENGNTIYDPKFQGRFTISADTSKNTAYLQMNSLRAEDTAVYYCTRGYYGSRVLAMDYWGQGTLVTVSSASAAA
notes: also called scFv(H32)
Regarding B1, the binding result in assay [1] and in assay [2] was “binds” each time.

B2: GH2-41 scFv (scFv)
scFv: DIQMTQSPSSLSASVGDRVTITCRASQDVSNSVAWYQQKPGKAPKLLISGAAWLYSGVPSRFSGSGSGTDFTLTISSLQPEDFATYYCQQSGNFPLTFGQGTKVEIKRGGSSRSSSSGGGGSGGGGEVQLVESGGGLVQPGGSLRLSCAASGFTISNWGIHWVRQAPGKGLEWVASIGPSGGFTSYADSVKGRFTISADTSKNTAYLQMNSLRAEDTAVYYCARFYIYGGVIMDYWGQGTLVTVSSASAAA
On to B2, for which the binding result in assay [1] and in assay [2] was “binds” throughout.

B3: GH2-20 scFv (scFv)
scFv: DIQMTQSPSSLSASVGDRVTITCRASQDVNNNVAWYQQKPGKAPKLLIYWTTYLYSGVPSRFSGSGSGTDFTLTISSLQPEDFATYYCQQGSNWPITFGQGTKVEIKRGGSSRSSSSGGGGSGGGGEVQLVESGGGLVQPGGSLRLSCAASGLTINDYGIHWVRQAPGKGLEWVASIGPSGGFTSYADSVKGRFTISADTSKNTAYLQMNSLRAEDTAVYYCARFVIYWGFFMDYWGQGTLVTVSSASAAA
With B3, the binding result in assay [1] and in assay [2] was “binds” in each case.

B4: GH2-50 scFv (scFv)
scFv: DIQMTQSPSSLSASVGDRVTITCRASQDVFYGVAWYQQKPGKAPKLLIFWTTYLYSGVPSRFSGSGSGTDFTLTISSLQPEDFATYYCQQYFNWPLTFGQGTKVEIKRGGSSRSSSSGGGGSGGGGEVQLVESGGGLVQPGGSLRLSCAASGFTINNDGIHWVRQAPGKGLEWVAAIGPFWGSTDYADSVKGRFTISADTSTNTAYLHMNSLRAEDTALYYCARFGNYYDGVMDYWGQGTLVTVSSASAAA
Turning to B4, the binding result in assay [1] and in assay [2] was “binds” throughout.

B5: GH2-61 scFv (scFv)
scFv: DIQMTQSPSSLSASVGDRVTITCRASQDVGSNVAWYQQKPGKAPKLLISWSTSLYSGVPSRFSGSGSGTDFTLTISSLQPEDFATYYCQQYGGWPITFGQGTKVEIKRGGGGSIEGRSGGGGSEVQLVESGGGLVQPGGSLRLSCAASGFTINNWGIHWVRQAPGKGLEWVAGIWPYGGYTYYADSVKGRFTISADTSKNTAYLQMNSLRAEDTAVYYCARFYNHHGGVMDYWGQGTLVTVSSASAAA
With B5, the binding result in assay [1] and in assay [2] was “binds” in each case.
